{"source": "patent US20180045741", "proteins": {"B1": {"name": "PINK1-3x Flag isolated from CCCP-treated cells (protein)", "chain": "MAVRQALGRGLQLGRALLLRFTGKPGRAYGLGRPGPAAGCVRGERPGWAAGPGAEPRRVGLGLPNRLRFFRQSVAGLAARLQRQFVVRAWGCAGPCGRAVFLAFGLGLGLIEEKQAESRRAVSACQEIQAIFTQKSKPGPDPLDTRRLQGFRLEEYLIGQSIGKGCSAAVYEATMPTLPQNLEVTKSTGLLPGRGPGTSAPGEGQERAPGAPAFPLAIKMMWNISAGSSSEAILNTMSQELVPASRVALAGEYGAVTYRKSKRGPKQLAPHPNIIRVLRAFTSSVPLLPGALVDYPDVLPSRLHPEGLGHGRTLFLVMKNYPCTLRQYLCVNTPSPRLAAMMLLQLLEGVDHLVQQGIAHRDLKSDNILVELDPDGCPWLVIADFGCCLADESIGLQLPFSSWYVDRGGNGCLMAPEVSTARPGPRAVIDYSKADAWAVGAIAYEIFGLVNPFYGQGKAHLESRSYQEAQLPALPESVPPDVRQLVRALLQREASKRPSARVAANVLHLSLWGEHILALKNLKLDKMVGWLLQQSAATLLANRLTEKCCVETKMKMLFLANLECETLCQAALLLCSWRAAL"}}, "target": "unphosphorylated ubiquitin"}
{"protein": "B1", "values": [{"measurement": "phosphorylation of ubiquitin (Phos-tag assay)", "value": "PINK1 isolated from CCCP-treated cells phosphorylates ubiquitin"}]}
